Experiments:
[1] = biological target: T1, His-tagged ER luminal domain of IRE1α (IRE1-NLD-His6-KDEL) (red fluorescent tag, covalently labelled (only in the MST of Figure 4C)); experiment: MST; IRE1-NLD labelled
T1 chain: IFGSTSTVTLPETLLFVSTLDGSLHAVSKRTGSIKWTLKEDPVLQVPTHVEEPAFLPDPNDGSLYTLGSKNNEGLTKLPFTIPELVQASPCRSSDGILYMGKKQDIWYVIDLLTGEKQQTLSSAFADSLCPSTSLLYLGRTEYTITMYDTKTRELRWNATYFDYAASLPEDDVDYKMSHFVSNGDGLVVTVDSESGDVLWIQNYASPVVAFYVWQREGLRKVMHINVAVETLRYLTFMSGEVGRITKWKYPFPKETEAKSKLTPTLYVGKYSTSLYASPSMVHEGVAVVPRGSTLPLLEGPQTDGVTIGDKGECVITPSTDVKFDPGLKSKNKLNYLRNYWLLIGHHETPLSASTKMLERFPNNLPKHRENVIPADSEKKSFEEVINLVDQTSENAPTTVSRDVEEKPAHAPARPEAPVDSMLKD

[2] = biological target: T1, His-tagged ER luminal domain of IRE1α …; experiment: MST; COX-2 labelled
[3] = biological target: T1, His-tagged ER luminal domain of IRE1α …; experiment: SPR

B1: COX-2 (prostaglandin endoperoxide synthase 2, PTGS2), purified His-tagged protein (enzyme)
chain: ANPCCSHPCQNRGVCMSVGFDQYKCDCTRTGFYGENCSTPEFLTRIKLFLKPTPNTVHYILTHFKGFWNVVNNIPFLRNAIMSYVLTSRSHLIDSPPTYNADYGYKSWEAFSNLSYYTRALPPVPDDCPTPLGVKGKKQLPDSNEIVEKLLLRRKFIPDPQGSNMMFAFFAQHFTHQFFKTDHKRGPAFTNGLGHGVDLNHIYGETLARQRKLRLFKDGKMKYQIIDGEMYPPTVKDTQAEMIYPPQVPEHLRFAVGQEVFGLVPGLMMYATIWLREHNRVCDVLKQEHPEWGDEQLFQTSRLILIGETIKIVIEDYVQHLSGYHFKLKFDPELLFNKQFQYQNRIAAEFNTLYHWHPLLPDTFQIHDQKYNYQQFIYNNSILLEHGITQFVESFTRQIAGRVAGGRNVPPAVQKVSQASIDQSRQMKYQSFNEYRKRFMLKPYESFEELTGEKEMSAELEALYGDIDAVELYPALLVEKPRPDAIFGETMVEVGAPFSLKGLMGNVICSPAYWKPSTFGGEVGFQIINTASIQSLICNNVKGCPFTSFSVPDPELIKTVTINASSSRSGLDDINPTVLLKERSTEL
modifications: red fluorescent tag, covalently labelled (only in the MST of Figure 4B)
In the case of B1, the Kd [1] is reported as 155 nM and the Kd [2] is reported as 138 nM.

B2: PDIA6 (protein)
chain: LYSSSDDVIELTPSNFNREVIQSDSLWLVEFYAPWCGHCQRLTPEWKKAATALKDVVKVGAVDADKHHSLGGQYGVQGFPTIKIFGSNKNRPEDYQGGRTGEAIVDAALSALRQLVKDRLGGRSGGYSSGKQGRSDSSSKKDVIELTDDSFDKNVLDSEDVWMVEFYAPWCGHCKNLEPEWAAAASEVKEQTKGKVKLAAVDATVNQVLASRYGIRGFPTIKIFQKGESPVDYDGGRTRSDIVSRALDLFSDNAPPPELLEIINEDIAKRTCEEHQLCVVAVLPHILDTGAAGRNSYLEVLLKLADKYKKKMWGWLWTEAGAQSELETALGIGGFGYPAMAAINARKMKFALLKGSFSEQGINEFLRELSFGRGSTAPVGGGAFPTIVEREPWDGRDGELPVEDDIDLSDVELDDLGKDEL
Work on B2 yielded a Kd [3] of 3530 nM.

B3: BiP (protein)
chain: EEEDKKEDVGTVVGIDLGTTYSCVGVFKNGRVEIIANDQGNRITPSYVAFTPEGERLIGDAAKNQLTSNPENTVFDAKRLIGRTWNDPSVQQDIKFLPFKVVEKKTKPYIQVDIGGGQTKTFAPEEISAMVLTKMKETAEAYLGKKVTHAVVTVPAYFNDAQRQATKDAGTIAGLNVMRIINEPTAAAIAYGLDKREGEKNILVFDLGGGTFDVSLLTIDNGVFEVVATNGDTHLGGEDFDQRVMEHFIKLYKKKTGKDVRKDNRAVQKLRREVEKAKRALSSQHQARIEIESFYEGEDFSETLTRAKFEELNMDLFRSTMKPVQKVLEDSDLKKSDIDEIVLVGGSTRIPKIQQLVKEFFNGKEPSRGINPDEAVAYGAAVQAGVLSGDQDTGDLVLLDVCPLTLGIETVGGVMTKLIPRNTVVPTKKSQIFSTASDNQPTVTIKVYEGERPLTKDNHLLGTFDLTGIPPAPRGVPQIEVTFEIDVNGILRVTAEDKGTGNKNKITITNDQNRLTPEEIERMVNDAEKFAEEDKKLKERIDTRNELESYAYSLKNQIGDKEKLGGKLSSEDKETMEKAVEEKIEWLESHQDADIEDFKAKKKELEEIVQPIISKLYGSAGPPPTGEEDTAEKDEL
With B3 the Kd [3] was 1660 nM.

Reference: publication PMC6232179 (2018)
